# Results as given in PMC10872586 (Cell reports, 2023).
# Numbering of substitutions follows the chain as printed.
# B1: CR9114 Fab (positive control) (Fab, V domains shown)
# VH: QVQLVQSGAEVKKPGSSVKVSCKSSGGTSNNYAISWVRQAPGQGLDWMGGISPIFGSTAYAQKFQGRVTISADIFSNTAYMELNSLTSEDTAVYFCARHGNYYYYSGMDVWGQGTTVTVSS
# VL: QSALTQPPAVSGTPGQRVTISCSGSDSNIGRRSVNWYQQFPGTAPKLLIYSNDQRPSVVPDRFSGSKSGTSASLAISGLQSEDEAEYYCAAWDDSLKGAVFGGGTQLTVL
# notes: source: Expi293F, co-transfected, purified (CaptureSelect CH1-XL)
# B2: CR9114 gHC Fab VL W91A (Fab, V domains shown)
# VH: QVQLVQSGAEVKKPGSSVKVSCKASGGTFSSYAISWVRQAPGQGLEWMGGIIPIFGTANYAQKFQGRVTITADKSTSTAYMELSSLRSEDTAVYYCARHGNYYYYYGMDVWGQGTTVTVSS
# VL: B1 VL with Q1S, S2Y, A3V, W92A
# notes: Kabat numbering; source: Expi293F, co-transfected, purified (CaptureSelect CH1-XL)
# B3: CR9114 with germline heavy chain, Fab (Fab, V domains shown)
# VH: B2 VH
# VL: B1 VL with Q1S, S2Y, A3V
# notes: also called CR9114 gHC; WT; source: Expi293F, co-transfected, purified (CaptureSelect CH1-XL)
# B4: CR9114 gHC Fab VL A96Y (Fab, V domains shown)
# VH: B2 VH
# VL: B1 VL with Q1S, S2Y, A3V, A99Y
# notes: as for B2
# B5: CR9114 gHC Fab VL W91R (Fab, V domains shown)
# VH: B2 VH
# VL: B1 VL with Q1S, S2Y, A3V, W92R
# notes: as for B2
# B6: CR9114 gHC Fab VL W91T (Fab, V domains shown)
# VH: B2 VH
# VL: B1 VL with Q1S, S2Y, A3V, W92T
# notes: as for B2
# B7: CR9114 gHC Fab VL A96W (Fab, V domains shown)
# VH: B2 VH
# VL: B1 VL with Q1S, S2Y, A3V, A99W
# notes: as for B2
# B8: CR9114 gHC Fab VL A96F (Fab, V domains shown)
# VH: B2 VH
# VL: B1 VL with Q1S, S2Y, A3V, A99F
# notes: as for B2
# Assays:
# mini-HA #4900 protein = mini-HA #4900 protein (Designed influenza A H1 HA stem #4900 …, stabilised, biotin at the BirA biotinylation site, conjugated to streptavidin-PE (for the yeast display assays only)); experiment: BLI; details: both partners purified
# [1] = target: HA protein from H1N1 A/Solomon Islands/3/2006 (Influenza A virus (A/Solomon …, UniProt A7Y8I1, strain)); experiment: BLI; details: both partners purified
Binder,binding result [1],also measured
B1,–,Kd (mini-HA #4900 protein): 0.00069 µM
B2,no binding (tested: 300 nM),–
B3,–,Kd [1]: 2.6 µM
B4,no binding (tested: 300 nM),–
B5,no binding (tested: 300 nM),–
B6,no binding (tested: 300 nM),–
B7,no binding (tested: 300 nM),–
B8,no binding (tested: 300 nM),–
